Assay results published in US9340577.
Values joined by “and” are separate entries in the source; they are usually repeats but may differ in a detail not shown here. Equal entries are not always repeated.

How the values were obtained:
Assay in all cases: competition
Settings in all cases: modification not given
[1] = molecular target: T1, H-2Kd (mouse)
T1 chain 1: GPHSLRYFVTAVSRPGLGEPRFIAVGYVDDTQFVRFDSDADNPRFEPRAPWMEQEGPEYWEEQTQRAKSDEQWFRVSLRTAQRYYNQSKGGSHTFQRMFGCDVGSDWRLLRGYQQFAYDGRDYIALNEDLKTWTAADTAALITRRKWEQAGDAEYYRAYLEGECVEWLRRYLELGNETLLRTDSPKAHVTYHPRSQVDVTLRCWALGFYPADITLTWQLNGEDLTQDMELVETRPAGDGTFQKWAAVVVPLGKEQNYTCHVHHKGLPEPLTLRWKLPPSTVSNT
T1 chain 2: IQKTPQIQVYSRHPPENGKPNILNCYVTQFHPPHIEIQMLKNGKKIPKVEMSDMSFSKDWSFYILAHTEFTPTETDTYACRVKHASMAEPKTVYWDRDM

[2] = molecular target: T2, H-2Kb (mouse)
T2 chain 1: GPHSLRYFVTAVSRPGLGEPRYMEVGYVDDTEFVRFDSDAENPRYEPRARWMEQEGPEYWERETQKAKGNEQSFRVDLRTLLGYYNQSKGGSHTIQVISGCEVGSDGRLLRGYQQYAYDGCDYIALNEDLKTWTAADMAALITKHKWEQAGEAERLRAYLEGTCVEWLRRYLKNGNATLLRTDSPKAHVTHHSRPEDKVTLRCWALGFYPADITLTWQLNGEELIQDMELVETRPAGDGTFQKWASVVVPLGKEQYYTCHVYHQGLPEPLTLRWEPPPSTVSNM
T2 chain 2: T1 chain 2

[3] = molecular target: T3, H-2Db (mouse)
T3 chain 1: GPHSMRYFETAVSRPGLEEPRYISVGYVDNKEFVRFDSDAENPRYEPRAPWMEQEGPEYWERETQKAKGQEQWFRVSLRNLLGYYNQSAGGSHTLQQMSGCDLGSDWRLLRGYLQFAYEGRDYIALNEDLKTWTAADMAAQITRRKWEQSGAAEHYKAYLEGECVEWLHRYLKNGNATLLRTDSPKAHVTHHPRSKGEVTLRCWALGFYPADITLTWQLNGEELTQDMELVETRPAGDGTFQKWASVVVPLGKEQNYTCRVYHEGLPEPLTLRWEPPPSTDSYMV
T3 chain 2: T1 chain 2

Row | Binder | IC50 [1] | IC50 [2] | IC50 [3]
1 | WYWGPSLYSI [HBV env 362] | 16 nM and 8.3 nM | – | –
2 | VSAAFYHL [HBV pol 419] | – | 5.2 nM and 7 nM | –
3 | GVYQFKSV [14.0018] | – | 11 nM | –
4 | FFYRYGFV [FluA POL1 495] | – | 350 nM | –
5 | AAAAAANAAAM [F079.09] | – | 31000 nM | –
6 | RNPRFYNL [1079.14] | – | 7.9 nM | > 44000 nM
7 | FAPGYNPAL [1275.04] | – | 2 nM | –
8 | TALANTIEV [FluA POL1 141] | – | – | 3.7 nM and 16 nM
9 | ASARFSWL [HBV env 329] | – | 323 nM and 49 nM | –
10 | AYAGAKAAI [1114.07] | 48 nM | – | –
11 | FQPQNGQFI [LCMV NP 396] | – | > 31000 nM and 9510 nM | 4.9 nM and 6.9 nM and 17 nM
12 | FQPQNGQFIHFY [928.15] | – | – | 280 nM
13 | RTFSFQLI [Flu NS 114] | – | 26 nM and 27 nM | –
14 | TGICNQNII [FluA NM 46] | – | – | 21 nM and 13 nM
15 | KNKFFSYL [22.0011] | – | 57 nM | –
16 | SHYAFSPM [F190.04] | – | 250 nM | > 88000 nM
17 | RGPGRAFVTI [1087.01] | – | 31000 nM | 22000 nM
18 | AAAAYAAM [F079.05] | – | – | > 44000 nM
19 | HMWNFIGV [1476.12] | – | 202 nM | –

Row | Binder | IC50 [1] | IC50 [2] | IC50 [3]
20 | ANFSFRNTL [16.0031] | – | 6 nM | –
21 | SVYDFFVWL [F117.14] | – | 1 nM | –
22 | LGYDYSYL [16.0004] | – | 3.4 nM | –
23 | VYINTALL [FluA POL2 463] | – | 14 nM and 65 nM | –
24 | VYIEVLHL [FluA POL3 227] | – | 75 nM and 21 nM | –
25 | ASNENMDAM [1275.03] | – | – | 28 nM
26 | MGLIYNRM [Flu M1 128] | – | 16 nM and 9.9 nM | –
27 | KQYLNLYPV [HBV pol 668] | – | – | 3.4 nM
28 | MGLKFRQL [HBV core 122] | – | 7.4 nM and 6.3 nM | –
29 | SIQFFGERAL [F079.03] | – | 21 nM | > 44000 nM
30 | IGRFYIQM [FluA NP 36] | – | 24 nM and 42 nM | –
31 | AAAANAAAM [F079.08] | – | 11000 nM | 23 nM
32 | LSYSAGAL [FluA M1 117] | – | 60 nM and 31 nM | –
33 | SYVPSAEQIL [1081.06] | 280 nM | – | –
34 | NAIVFKGL [17.0284] | – | 484 nM | –
35 | SYVNTNMGL [HBV core 116] | 19 nM and 12 nM | – | –
36 | VGLSYSQTM [14.0118] | – | 71 nM | –
37 | SIQFFGEL [F079.04] | – | 16 nM | > 44000 nM
38 | MITQFESL [Flu NS 31] | – | 42 nM and 64 nM | –

Row | Binder | IC50 [1] | IC50 [2] | IC50 [3]
39 | ISHNFCNL [14.0011] | – | 411 nM | –
40 | SGVENPGGYCL [928.07] | – | > 31000 nM | 60 nM
41 | RFYRTCKL [FluA POL1 465] | – | 47 nM | –
42 | SYLTLAKHTI [F078.18] | 4.4 nM | – | –
43 | SQVMNLHNL [F100.04] | – | – | 2.3 nM
44 | VSYVNTNM [HBV core 115] | – | 33 nM and 60 nM | –
45 | SSLPFQNI [FluA HA 305] | – | 9.5 nM and 53 nM | –
46 | AAAAYAAAAM [F079.06] | – | – | > 44000 nM
47 | LAVLYCLL [22.0012] | – | 72 nM | –
48 | KVPRNQDWL [F142.01] | – | – | 38 nM
49 | YMVPFIPL [22.0021] | – | 70 nM | –
50 | SVYDFYVWM [F138.03] | – | 1.2 nM | –
51 | MNIQFTAV [FluA HA 403] | – | 26 nM | –
52 | IVTMFEAL [14.0008] | – | 82 nM | –
53 | KMITQRTI [FluA POL1 198] | – | 300 nM | –
54 | AYAPAKAAI [1114.01] | 3.5 nM | – | –
55 | HYYVSRDTL [F078.05] | 43 nM | – | –
56 | SSMHNALHI [16.0029] | – | – | 7.6 nM
